One molecule from publication PMC2173242 (The Journal of Cell Biology, 2002) can be followed below.

The target in this experiment is Human recombinant His6-tagged Hsp70 (human, UniProt P0DMV8 1-641). The experiment is described as follows: pull-down.
Sequence of Human recombinant His6-tagged Hsp70 (P0DMV8 whole entry): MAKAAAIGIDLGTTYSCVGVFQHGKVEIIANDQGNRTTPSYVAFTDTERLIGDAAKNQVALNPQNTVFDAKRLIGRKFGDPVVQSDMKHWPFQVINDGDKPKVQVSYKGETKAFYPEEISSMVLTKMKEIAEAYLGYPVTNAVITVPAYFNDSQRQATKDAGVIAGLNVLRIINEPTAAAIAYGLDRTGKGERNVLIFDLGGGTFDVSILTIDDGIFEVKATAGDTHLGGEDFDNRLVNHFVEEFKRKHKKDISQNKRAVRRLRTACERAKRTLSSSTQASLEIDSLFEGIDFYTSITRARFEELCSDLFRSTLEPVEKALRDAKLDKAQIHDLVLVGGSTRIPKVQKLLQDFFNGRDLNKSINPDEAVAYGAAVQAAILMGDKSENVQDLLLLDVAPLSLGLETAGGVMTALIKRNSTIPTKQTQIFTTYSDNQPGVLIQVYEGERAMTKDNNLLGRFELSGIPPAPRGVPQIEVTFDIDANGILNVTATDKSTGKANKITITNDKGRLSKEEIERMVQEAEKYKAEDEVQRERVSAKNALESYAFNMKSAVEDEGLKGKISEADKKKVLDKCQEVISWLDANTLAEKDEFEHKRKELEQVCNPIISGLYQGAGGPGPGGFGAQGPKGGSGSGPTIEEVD

B1: Peptide C (peptide)
peptide: GCEVFGLGWRSYKH
Consider B1, for which the “ka (saturation of the effect of peptide C on binding of Hsp70-ADP to GST-CD40)” value is roughly 30 µM.
